Results reported in the Immune Epitope Database (IEDB).

How the values were obtained:
[1] = biological target: HLA-A*02:01; experiment: IEDB peptide-MHC binding, purified MHC/direct/fluorescence; filed as Kd, often an IC50 or EC50 that approximates it; ≥ and ≤ were set here for values at or beyond the usual limits of such assays
[2] = biological target: HLA-A*69:01; experiment: as above; conditions: source organism: Salmonella enterica subsp. enterica serovar Typhimurium
[3] = biological target: HLA-B*15:01; experiment: as above; conditions: source organism: Salmonella enterica subsp. enterica serovar Typhimurium
[4] = biological target: HLA-A*02:03; experiment: IEDB peptide-MHC binding, purified MHC/competitive/radioactivity; filed as Kd, often an IC50 or EC50 that approximates it; ≥ and ≤ were set here for values at or beyond the usual limits of such assays
[5] = biological target: HLA-A*02:06; experiment: as above
[6] = biological target: HLA-A*02:02; experiment: as above
[7] = biological target: HLA-B*51:01; experiment: as above; conditions: source organism: Dengue virus 2 Jamaica/1409/1983
[8] = biological target: HLA-A*02:01; experiment: IEDB peptide-MHC binding, purified MHC/competitive/fluorescence; ≥ and ≤ were set here for values at or beyond the usual limits of such assays
[9] = biological target: HLA-A*30:02; experiment: IEDB peptide-MHC binding, purified MHC/competitive/radioactivity; filed as Kd, often an IC50 or EC50 that approximates it; ≥ and ≤ were set here for values at or beyond the usual limits of such assays; conditions: source organism: Dengue virus 1 Singapore/S275/1990
[10] = biological target: HLA-B*07:02; experiment: IEDB peptide-MHC binding, purified MHC/direct/fluorescence; filed as Kd, often an IC50 or EC50 that approximates it; ≥ and ≤ were set here for values at or beyond the usual limits of such assays
[11] = biological target: HLA-B*46:01; experiment: as above; conditions: source organism: Yellow fever virus
[12] = source organism: Vaccinia virus WR
[13] = source organism: Lassa virus Josiah
[14] = source organism: Sudan ebolavirus
[15] = source organism: SARS coronavirus Tor2

Sequence | Kd [4, 12] [nM] | Kd [5, 12] [nM] | Kd [6, 12] [nM] | also measured
MMLAQAYYG |  |  |  | Kd ([1]; source organism: Salmonella enterica subsp. enterica serovar Typhimurium): 273 nM; Kd [2]: 3190 nM; Kd [3]: 5780 nM
MMQNDYGGM | 2740 | 1660 | 1080 | 
MSFRDLGRVM |  |  |  | Kd [7]: ≥ 38300 nM
MSIQLINKAV |  |  |  | Kd [4, 13]: 1790 nM; Kd [5, 13]: 619 nM; Kd [6, 13]: 11300 nM
NAVTTNNLL | ≥ 24900 | 202 | 1850 | 
NGLITSTVT |  |  |  | IC50 [8, 14]: ≥ 118000 nM
NIEIMDKEQL | 15500 | 5650 | 3470 | 
NLWNTFTRL |  |  |  | Kd [4, 15]: 194 nM; Kd [5, 15]: 166 nM; Kd [6, 15]: 24 nM
NLYISDYKM | ≥ 25300 | 11000 | 2790 | 
NVLAWLYAA |  |  |  | Kd [4, 15]: 15.3 nM; Kd [5, 15]: 1.58 nM; Kd [6, 15]: 7.31 nM
PLTYLEYPI |  |  |  | Kd ([1]; source organism: Homo sapiens): 2860 nM
PTLFGRGVI | 6730 | ≥ 64800 | ≥ 30300 | 
QGDNDNWWT |  |  |  | IC50 ([8]; source organism: Zaire ebolavirus): ≥ 283000 nM
QLSGLGINAV |  |  |  | IC50 ([8]; source organism: Hepatitis C virus subtype 1b): 123 nM
QVKDNIISRT | 421 | ≥ 34200 | 17800 | 
RFKGEDGCWY |  |  |  | Kd [9]: 8.19 nM
RIKSVLDII | 17.6 | 2080 | 111 | 
RLPSETFPNV | 14.1 | 0.584 | 173 | 
RPKSNIVLL |  |  |  | Kd ([10]; source organism: Homo sapiens): 200 nM
RPPIFIRRL |  |  |  | Kd ([10]; source organism: Human herpesvirus 4 strain B95-8): 356 nM
RSGVPPKVV |  |  |  | IC50 [8, 14]: ≥ 80200 nM
SAEDNYLAKL | ≥ 70400 | ≥ 69800 | ≥ 70000 | 
SARALKAYFT | 7810 | ≥ 25700 | ≥ 21600 | 
SASDMQKFTI | 1220 | 4250 | 10800 | 
SIQDNQVAY |  |  |  | Kd [11]: 19700 nM
